Laboratory results published in patent US20230279105A1 (SINGLE CELL TECHNOLOGY, published 2023).

What follows are binders tested against T1, Human TIM-3 Human Fc tagged protein (human, fluorescently labeled with HiLyte Fluor 555 (sites not given)) (assay: capture slide probed with labeled TIM-3-Fc;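 further: IgG from single CD138-enriched plasma cells, isolated from lymphocytes, immobilized on a derivatized glass slide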).
T1 construct: Bought construct; also called TIM-3 protein tagged with human Fc; ACROBiosystems catalog no: TM3-H5258

| binding result | Binder |
| --- | --- |
| binds | SCT-Fa169 (antibody, V domains shown, murine IgG) VH: QVQLQQPGTELVMPGASVNLSCKASGYTFTSYWMHWVKQRPGQGLEWIGEIDPSDSYANYNQNFKGKATLTVDKSSITAYMQLSSLTSEDSAVYYCARNYGSNYVGYFDYWGQGTTLTVSS VL: DIQMTQTTSSLSASLGDRVTISCRASQDISNYLNWYQQKPDGTVKLLIYYTSRLHSGVPSRFSGSGSGTDYSLTISNLDQEDIATYFCQQEKTLPWTFGGGTKLEIK |
| binds | SCT-Fa151 (antibody, V domains shown, murine IgG) VH: QVQLQQPGSELVRPGTSVKLSCKASGYTFTSYWMHWVKQRPGQGLEWIGVIDPSDNNTHYNQKFTGKATLTVDTSSSTAYMHLSSLTSEDSAVFYCARNDYDGGYFDFWGQGTTLTVSS VL: DVVMTQTPLSLPVSLGDHASISCRSSQSLVHSNGHTYLHWYLQKPGQSPKLLIDKVSNRFSGVPDRFSGSGSGTDFTLKISRVEAEDLGVYFCSQSTHVPWTFGGGTKLEIK |
| binds | SCT-Fa173 (antibody, V domains shown, murine IgG) VH: QVQLQQSGAELMRPGASVTLSCKASGYTFPDYEMYWVKQTPVHGLEWIGVIDPETGGTAYNQKFEVKAILTADKSSNTAYMELRSLTSEDSAVYYCTRWAYWGQGTLVTVSA VL: QIVLTQSPAIMSASLGERVTMTCTASSSVSSSYLHWYQQKPGSSPKLWVYSTSNLASGVPGRFSGSGSGTSYSLTISSMEAEDAATYYCHHYHRSPPTFGGGTKLEIK |
| binds | SCT-Fa170 (antibody, V domains shown, murine IgG) VH: QVQLQQSGAELARPGASVKLSCKASGYTFRSYGLSWVKQRTGQGLEWIGEIYPRSGNTYYNEKFKDRVTLTADKSSSAAYMELRSLTSEDSAVYFCARSTAVVAGGFDYWGQGTALTVSS VL: DIVMTQSPSSLTVTAGEKVTMSCKSSQSLFNSRTQKNSLTWYQQKPGQPPKLLIFWASTRESGVPDRFTGSASGTDFTLTLSGVQAEDLAIYYCQNDYTYPWTFGGGTKLEIK |
| binds | SCT-Fa171 (antibody, V domains shown, murine IgG) VH: QVQLQQSGAELARPGASVKLSCKASGYTFTNYGISWVKQRTGQGLEWIGEIYPRSGNSYYNEKFKGKATLTADKSSSTAYMELRSLTSEDSAVYFCARSTAIVAGGFDYWGQGTTLTVSS VL: DIVMTQSPSSLTVTAGEKVTMSCKSSQSLLNSRIQKNSLTWYQQKPGQPPKLLIYWASTRESGVPDRFTASGSGTDFTLTISSVQAEDLAVYYCQNDYTYPWTFGGGTKLEIK |
| binds | SCT-Fa172 (antibody, V domains shown, murine IgG) VH: QVQLQQSGAELARPGASVKLSCKASGYTFTSYGISWVKQRTGQGLEWIGEIYPRSGNTYYNEKFKGKATLTADKSSSTAYMELRSLTSEDSAVYFCARSTYGSSSYAMDYWGQGTSVTVSS VL: DVLMTQTPLSLPVSLGDQASISCRSSQSIVHSNGNTYLEWYLQKPGQSPKLLIYKVSNRFSGVPDRFSGSGSGTDFTLKISRVEAEDLGVYYCFQGSHVPYTFGGGTKLEIK |
| binds | SCT-Fa158 (antibody, V domains shown, murine IgG) VH: QVQLQQPGTELVKPGASVKVSCKASGYTFISYWMHWVKQRPGQGLEWIGNIDPNSGTTNYNEKFKTKATLTVDKSSSTAYMQLSSLTSEDSAVYYCARWGWDGFAYWGQGTLVTVSA VL: DAVMTQTPLSLPVSLGDQASISCRSSQSLENSNGNTYLNWYLQKPGQSPQLLIYRVSTRFSGVLDRFSGSGSGTDFTLKISRVEAEDLGVYFCLQVTHVPYTFGGGTKLEIK |
| binds | SCT-Fa161 (antibody, V domains shown, murine IgG) VH: QVQLQQPGTELVKPGASVKVSCKASGYTFISYWMHWVKQRPGQGLEWIGNIDPNYGGPNYNEKFKTKATLTVDKSSSTAYMQLSSLTSEDSAVYYCARWGWDGFAYWGQGTLVTVSA VL: QIVLTQSPALMSASPGEKVTMTCSASSSVSYMYWYQQKPRSSPKPWIYLTSNLASGVPARFSGSGSGTSYSLTISSMEAEDAATYYCQQWSSNPFTFGSGTKLEIK |
| binds | SCT-Fa163 (antibody, V domains shown, murine IgG) VH: QVQLQQPGTELVKPGASVKVSCKASGYTFISYWMHWVKQRPGQGLEWIGNIDPNYGGSNYNEKFKSKATLTVDKSSSTAYMQLSSLTSEDSAVYYCARWGWDGFAYWGQGTLVTVSA VL: DIQMTQSPSSLSASLGERVSLTCRASQDIGSSLNWLQQEPDGTIKRLIYATSSLDSGVPKRFSGSRSGSDYSLTISSLESEDFVDYYCLQYASSPFTFGSGTKLEIK |
| binds | SCT-Fa152 (antibody, V domains shown, murine IgG) VH: QVQLQQPGTELVKPGASVKVSCKASGYTFISYCMHWVKQRPGQGLDWIGNIDPNNGGPNYNEKFKTKATLTVDKSSSTAYMQLSSLTSEDSAVYYCARWGWDGFAYWGQGTLVTVSA VL: DAVMTQTPLSLPVSLGDQASISCRSSQSLENSNGNTYLNWYLQKPGQSPQLLIYRVSNRFSGVLDRFSGSGSGTDFTLKISRVEAEDLGVYFCLQVTHVPYTFGGGTKLEIK |
| binds | SCT-Fa156 (antibody, V domains shown, murine IgG) VH: QVQLQQPGTELVKPGASVKVSCKASGYTFISYWMHWVKQRPGQGLEWIGNIDPNSGGTNYNEKFKSKAILTVDKSSSTAYMQLSSLTSEDSAVYYCTRWGWDGFAYWGQGTLVTVSA VL: DAVMTQTPLSLPVSLGDQVSISCRSSQSLENSNGNTYLNWYLQKPGQSPQLLIYRISTRFSGVLDRFSGSGSGTDFTLKISRVEAEDLGVYFCLQVTHVPYTFGGGTKLEIK |
| binds | SCT-Fa159 (antibody, V domains shown, murine IgG) VH: QVQLQQPGTELVKPGASVKVSCKASGYTFISYWMHWVKQRPGQGLEWIGNIDPNYGGPNYNEKFKTKATLTVDKSSSTAYMQLSSLTSEDSAVYYCARWGWDGFAYWGQGTLVTVSA VL: DAVMTQTPLSLPVSLGDQASISCRSSQSLENSNGNTYLNWYLQKPGQSPQLLIYRVSNRFSGVLDRFSGSGSGTDFTLKISRVEAEDLGVYFCLQITHVPYTFGGGTKLEIK |
| binds | SCT-Fa155 (antibody, V domains shown, murine IgG) VH: QVQLQQPGTELVKPGASVKVSCKASGYTFISYWMHWVKQRPGQGLEWIGNIDPNSGGTNYNEKFKSKAILTVDKSSSTAYMQLSSLTSEDSAVYFCARWGWDGFAYWGQGTLVTVSA VL: DVVMTQTPLSLPVSLGDQASISCRSSQSLENSNGNTYLNWYLQKPGQSPQLLIYRISTRFSGVLDRFSGSGSGTDFTLKISRVEAEDLGVYFCLQVTHVPYTFGGGTKLEIK |
| binds | SCT-Fa157 (antibody, V domains shown, murine IgG) VH: QVQLQQPGTELVKPGASVKVSCKASGYTFISYWMHWVKQRPGQGLEWIGNIDPNSGITNYNEKFKSKAILTVDKSSSTAYMQLSSLTSEDSAVYYCARWGWDGFAYWGQGTLVTVSA VL: DVVMTQTPLSLPVSLGDQASISCRSSQSLENSNGNTYLNWYLQKPGQSPQLLIYRISTRFSGVLDRFSGSGSGTDFTLKISRVEAEDLGVYFCLQVTHVPYTFGGGTKLEIK |
| binds | SCT-Fa153 (antibody, V domains shown, murine IgG) VH: QVQLQQPGTELVKPGASVKVSCKASGYTFISYWMHWVKQRPGQGLDWIGNIDPNNGGTNYNEKFKSKATLTVDKSSSTAYMQLSSLTSEDSAVYYCARWGWDGFAYWGQGTLVTVSA VL: DAVMTQTPLSLPVSLGDQASISCRSSQSLENSYGNTYLNWYLQKPGQSPQLLIYRVSTRFSGVLDRFSGSGSGTDFTLKISRVEAEDLGVYFCLQVTHVPYTFGGGTKLEIK |
| binds | SCT-Fa164 (antibody, V domains shown, murine IgG) VH: QVQLQQPGTELVKPGASVKVSCKASGYTFISYWMHWVKQRPGQGLEWIGNINPNNGGTNYNEKFKSKATLTVDKSSSTAYMQLSSLTSEDSAVYYCARWGWDGFAYWGQGTLVTVSA VL: DAVMTQTPLSLPVSLGDQASISCRSSQSLENSNGNTYLNWYLQKPGQSPQLLIYRVSTRFSGVLDRFSGSGSGTDFTLKISRVEAEDLGVYFCLQVTHVPYTFGGGTKLEIK |
| binds | SCT-Fa165 (antibody, V domains shown, murine IgG) VH: QVQLQQPGTELVKPGASVKVSCKASGYTFVSYWIHWVKQRPGQGLEWIGNIDPNNGGSNYNERFRTKATLTVDKSSSTAYMQLSSLASEDSAVYYCARWGWDGFAYWGQGTLVTVSA VL: DAVMTQTPLSLPVSLGDQASISCRSSQSLENSNGNTYLNWYLQKPGQSPQLLIYRVSTRFSGVLDRFSGSGSGTDFTLKISRVEAEDLGVYFCLQLTHVPYTFGGGTKLEIK |
| binds | SCT-Fa154 (antibody, V domains shown, murine IgG) VH: QVQLQQPGTELVKPGASVKVSCKASGYTFISYWMHWVKQRPGQGLEWIGNIDPNSGGTKYNEKFKSKAILTVDKSSSTAYMQLSSLTSEDSAVYYCTRWGWDGFAYWGQGTLVTVSA VL: DAVMTQTPLSLPVSLGDQVSISCRSSQSLENSNGNTYLNWYLQKPGQSPQLLIYRISTRFSGVLDRFSGSGSGTDFTLKISRVEAEDLGVYFCLQVTHVPYTFGGGTKLEIK |
| binds | SCT-Fa160 (antibody, V domains shown, murine IgG) VH: QVQLQQPGTELVKPGASVKVSCKASGYTFISYWMHWVKQRPGQGLEWIGNIDPNYGGPNYNEKFKTKATLTVDKSSSTAYMQLSSLTSEDSAVYYCARWGWDGFAYWGQGTLVTVSA VL: DAVMTQTPLSLPVSLGDQASISCRSSQSLENSNGNTYLNWYLQKPGQSPQLLIYRVSNRFSGVLDRFSGSGSGTDFTLKISRVEAEDLGVYFCLQLTHVPYTFGGGTKLEIK |
| binds | SCT-Fa168 (antibody, V domains shown, murine IgG) VH: QVQLQQPGTELVKPGASVKVSCKTSGYTFISYWMHWVKQRPGQGLEWIGNIDPNSGTTNYNEKFKTKATLTVDKSSSTAYMQLSSLTSEDSAVYYCARWGWDGFAYWGQGTLVTVSA VL: DAVMTQTPLSLPVSLGDQASISCRSSQSLENSNGNTYLNWYLQKPGQSPQLLIYRVSTRFSGVLDRFSGSGSGTDFTLKISRVEAEDLGVYFCLQVTHVPYTFGGGTKLEIK |
| binds | SCT-Fa166 (antibody, V domains shown, murine IgG) VH: QVQLQQPGTELVKPGASVKVSCKASGYTFVSYWMHWVKQRPGQGLEWIGNIDPNNGGSNYNERFRTKATLTVDKSSSTAYMQLSSLASEDSAVYYCARWGWDGFAYWGQGTLVTVSA VL: DAVMTQTPLSLPVSLGDQASISCRSSQSLENSNGNTYLNWYLQKPGQSPQLLIYRVSTRFSGVLDRFSGSGSGTDFTLKISRVEAEDLGVYFCLQLTHVPYTFGGGTKLEIK |
